Experimental data: publication PMC6699925

Target: phospholamban (PLN), mouse (mouse (endogenous in mouse heart)) (UniProt P61014)
Assay: co-IP

Sequence of UniProt P61014 (P61014 whole entry): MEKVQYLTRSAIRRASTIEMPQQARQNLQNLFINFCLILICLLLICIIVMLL

reduction of PP1c bound to PLN in Ppp1r3a-KO against WT hearts: 58%
Substance: protein phosphatase 1 catalytic subunit (PP1c), mouse (from UniProt P62137 1-330) (enzyme)
